# Results: patent US11896644B2, “Inhibition of beta-arrestin oligomerization in tauopathy” (UNIVERSITY OF SOUTH FLORIDA, priority 2020, dated 2024)
# B1: β-arrestin2 ΔIP6N: β-arrestin2 N-terminal domain mutant (K158A, K161A, and R162A), incapable of forming oligomers; dominant negative (protein, UniProt P32121 1-409, looked up, variant K158A K161A R162A)
# Beta-arrestin-2: MGEKPGTRVFKKSSPNCKLTVYLGKRDFVDHLDKVDPVDGVVLVDPDYLKDRKVFVTLTCAFRYGREDLDVLGLSFRKDLFIATYQAFPPVPNPPRPPTRLQDRLLRKLGQHAHPFFFTIPQNLPCSVTLQPGPEDTGKACGVDFEIRAFCAKSLEEASHAANSVRLVIRKVQFAPEKPGPQPSAETTRHFLMSDRSLHLEASLDKELYYHGEPLNVNVHVTNNSTKTVKKIKVSVRQYADICLFSTAQYKCPVAQLEQDDQVSPSSTFCKVYTITPLLSDNREKRGLALDGKLKHEDTNLASSTIVKEGANKEVLGILVSYRVKVKLVVSRGGDVSVELPFVLMHPKPHDHIPLPRPQSAAPETDVPVDTNLIEFDTNYATDDDIVFEDFARLRLKGMKDDDYDDQLC
# modifications: GFP or YFP tag
# notes: dominant negative
# How the values were obtained:
# [1] = system: tau in tau P301S cortical primary neurons; assay: Tau immunoblot of DIV18 tau P301S cortical primary neurons transduced with β-arrestin2 mutant lentivirus; assay type: cell-based, mice; conditions: DIV 18 tau P301S cortical primary neurons
# Protocol: FIGS. 4A to 4E show β-arrestin2 oligomerization is required for suppressing tau turnover. […] Data are shown as box plots or mean±SEM.
# Primary mouse hippocampal and cortical neuronal cultures were previously described (Woo J A, et al. (2019) Commun Biol 2:112; Woo J A, et al. (2017) Hum Mol Genet 26(20):3973-3988; Woo J A, et al. (2015) Cell Death Differ 22(6):1069-1070). Briefly, primary neurons were prepared from P0 mice. Both hippocampus and cortex were dissected separately in HBSS and digested with trypsin. Neurons were plated on glass coverslips coated with poly-D-lysine (Sigma-Aldrich, St Louis, MO, USA) and maintained in neurobasal medium with glutamax (Invitrogen, Carlsbad, CA, USA) and B27 supplement (Invitrogen, Carlsbad, CA, USA). […]
# (§1) When DIV 18 tau P301S cortical primary neurons were transduced with either β-arrestin2 ΔIP6C or ΔIP6N lentivirus, an approximately 50% reduction in tau compared to control was evident (FIGS. 4A,4B), which represents a key finding relevant to both mechanism of action and potential therapeutic strategies. […] To determine whether β-arrestin2 oligomerization status alters tau aggregation itself, filter-trap assays were performed from Hela-V5-tau cells transfected with β-arrestin2 variants, in which tau aggregates from detergent-soluble and-insoluble lysates were captured by cellulose acetate membranes and assessed by immunoblotting.
# [2] = target: T1, β-arrestin2-flag and β-arrestin2-myc interaction (Rattus norvegicus, UniProt P29067); assay: PLA of β-arrestin2-flag and β-arrestin2-myc interaction in presence of mutants; assay type: cell-based; conditions: Hela-V5-tau cells
# T1 construct: expressed in transfected cells; host or cells: Hela V5-tau cells
# T1 sequence (P29067 whole entry): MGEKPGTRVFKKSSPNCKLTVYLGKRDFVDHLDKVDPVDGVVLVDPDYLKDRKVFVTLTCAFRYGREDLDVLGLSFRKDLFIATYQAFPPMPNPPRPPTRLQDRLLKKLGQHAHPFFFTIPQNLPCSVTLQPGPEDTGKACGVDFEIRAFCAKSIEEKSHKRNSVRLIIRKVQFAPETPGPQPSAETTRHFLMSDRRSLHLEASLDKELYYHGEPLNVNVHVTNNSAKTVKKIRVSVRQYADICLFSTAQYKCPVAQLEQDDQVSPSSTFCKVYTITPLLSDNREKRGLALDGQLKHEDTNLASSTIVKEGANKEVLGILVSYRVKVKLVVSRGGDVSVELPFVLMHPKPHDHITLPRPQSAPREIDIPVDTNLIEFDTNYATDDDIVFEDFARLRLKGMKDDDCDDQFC
# Protocol: The assay was performed using commercially available reagents (Duolink, Sigma-Aldrich, St Louis, MO), with transfection of Hela V5-tau cells with WT β-arrestin2-flag and β-arrestin2-myc, without and with the mutant β-arrestin2 ΔIP6C or β-arrestin2 ΔIP6N constructs. Cells were fixed with 4% paraformaldehyde for 15 min at room temperature and washed with 0.2% triton in TBS. After washing, cells were blocked with 0.2% Triton in 3% Normal goat serum for 1 hour at room temperature. After applying primary antibodies overnight at 4° C., cells were washed and incubated with the PLA probes at 37° C. (1 h), washed with buffer A, incubated with ligation solution at 37° C. (30 min), washed with washing buffer A, incubated with amplification solution at 37° C. […]
# as §1
# GFP-p62 puncta = GFP-p62 puncta in Hela-V5-tau cells with/without bafilomycin A; assay type: cell-based; conditions: steady-state
# Protocol: Data are shown as box plots or mean±SEM.
# Given the effects on p62 autophagy flux, whether β-arrestin2 physically interacts with p62 was tested. […] Given that β-arrestin2 oligomeric mutants, ΔIP6C and ΔIP6N, reduced tau aggregates by slowing tau turnover, next tested was whether β-arrestin2 ΔIP6C and ΔIP6N mutants affect p62 self-association by a proximity ligation assays (PLA) as well as co-IP. […] Recent studies have shown that purified recombinant p62 spontaneously forms globular oligomers (Zaffagnini G, et al. (2018) EMBO J 37(5)). To test whether β-arrestin2 can directly affect p62 oligomerization in vitro, purified recombinant p62, β-arrestin2, and p62 mixed with β-arrestin2 with atomic force microscopy were visualized. Recombinant p62 spontaneously formed visible globular particles between 5-100 nm in diameter (FIG. 5K), whereas only very few small β-arrestin2 particles were visible under identical conditions (FIG. 5K). […] Next tested was whether β-arrestin2 oligomerization is required for bafilomycin A-induced p62 puncta formation. As expected, GFP-p62 puncta were increased upon bafilomycin A treatment in control vector transfected cells (FIGS. 5M,5N).
# p62 autophagy flux = conditions: primary neurons, rAAV9 mCherry-EGFP-p62
# Description: To directly test this hypothesis, the mCherry-EGFP-p62 autophagy flux reporter was used. This reporter takes advantage of the sensitivity of GFP to low pH (which quenches the signal) and the insensitivity of mCherry to low pH. Therefore, colocalized red and green puncta are indicative of non-lysosomal p62 at steady-state.
molecule,measurement,setting,value
B1,reduction in tau compared to control,[1],approximately 50%
same,β-arrestin2-flag and β-arrestin2-myc interaction (PLA),[2],significantly reduced
same,GFP-p62 puncta,GFP-p62 puncta,increased GFP-p62 puncta at steady-state
same,ratio of mCherry only to total puncta,p62 autophagy flux,significantly increased
